Data published in a protein production outcome set (Wang et al. 2014).

Assay: label from the status in PepcDB records

Sequence	protein production
RISWVGEAVKTDGKKSYYKKVCIDAETLEVGDCVSVIPDDSSKPLYLARVTALWEDSSNGQMFHAHWFCAGTDTVLGATSDPLELFLVDECEDMQLSYIHSKVKVIYKAPSENWAMEGGMDPESLLEGDDGKTYFYQLWYDQDYARFESPPKTQPTEDNKFKFCVSCARLAEMRQKEIPRVLEQLEDLDSRVLYYSATKNGILYRVGDGVYLPPEAFTFNIKLSSPVKRPRKEPVDEDLYPEHYRKYSDYIKGSNLDAPEPYRIGRIKEIFCPKKSNGRPNETDIKIRVNKFYRPENTHKSTPASYHADINLLYWSDEEAVVDFKAVQGRCTVEYGEDLPECVQVYSMGGPNRFYFLEAYNAKSKSFEDPPNHARSP	failed
RKFEGMKTVQLICIKMSCIMLFFVSGYAKGTQEEHTMQFGEEKTTYLLHLPKGYIQGKAYSLVVNFHGLGSAAIKHQHYCQLDAVADKEGFIAVYPQSYHQGWNAGLGFTSYIQGHDDIAYFNALLDTLEAAYSIDKNRIYVTGVSLGGSFTYRIACEMSKRIAAIASVSGLMSDSTLIYCTPERSVPVMHIHGTKDHIMRYTGMKQAFGAEEVVRLWALKDQCENKPDTVFVPNTSKKDHTSSILIKYTHCANGSEVWFYKIYNGGHTWPGAAKAFKLMGRKSKDFNG	failed
RKIFTNKCERAGCRQREMMKLTCERCSRNFCIKHRHPLDHDCSGEGHPTS	not failed
RKILDSKAIDLMNALMRLNQIRPGLQYKLLSQSGPVHAPVFTMSVDVDGTTYEASGPSKKTAKLHVAVKVLQAMGYPTGFDADI	not failed
RLLRLKLSSLGVLKVFPNRDEAYKDIFKDLVDSNEILLLGYKGNALLSNSDYPSRLEILEEYSRGQKIAIKALLLSPQAKQYVKKRSVELGEKNLHRNHSRDIEDSIVNFRKVKENGILDVECRLFSEALKWSLLFSDKYILVSFYNNKVRVKLSPCFKLRRSSMLGWAFEKHFRDLWEKKSIDAFTSYTRPCVIVVVGGSFTGKSIISNHLSNKYQFSGVLSTDMVRNFFRISTRDRKTYQTSTYRMDDSELNIQKNNVSNMIEQMLEIYRSRREKIIIEGMHLTEDFLRNINKQDCLIIGLDNKRDINDRLDLKMKTTREEVSKKTEDEKKRINEIHYGIIECCKRNNFKVVEFQDIEDAKDKCEHLVEEFFTQRSKR	failed
RLPEVAHLLARVHNSELLHRMLRKVGGQSVRPQDFIQQYLQDLPDDLRHHPLMARVLDELRGTAPTLPATDYRVCHGDLNHKNWLLSDRQQLYLVDWDSARFADPASDISMLLCEYVPLSDWQQWLSEYGETMTTALRTRVVWYAKINLLLNIKDNYYRNQYHQMNHEIIFLEELSQYEV	failed
RLRHCNHHDPHGFYGWHETEAGSVIRTRQVGATQVNLLIDDTSHVMTPIGDDIFAIDLGHRERADYRLEVTWPDQEPQVKADPYYFLPTVG	failed
RLSAREAIALLSDDFDRLPVAEGAYAPDGPLSWQGYDASRARATERTGEDESVVCGRARIDGTPAVLIAFEFGFLGGSLGERTGDRLEAAYTYARAHRLPVVSLVATGGSRMQEGMLALTQLQRVARQSALTRAAGLPQLAVLRDPTTGGGWATLGAGADVVLALPGVQVGFAGSRVRPPDADPAAYTAQAQLAAGSIDAVVRPQELRETVGLWLALLTAPSTEP	failed
RMPTRRWAPGTQCITKCEHTRPKPGELAFRKGDVVTILEACENKSWYRVKHHTSGQEGLLAAGALRER	not failed
RNYNNPVVLCGFAGSTPTGVLAASYIVETLGMHQVAHLISQHIPPVAVFVGGKLRHPFRIYANNSNTVLVAMCEVPISSAHIYEISNTLMNWIDQVGASEIVIMEGSPANGIPEERPVFAVAEKPKLDKFKKAGIQPADSAIIAGMGGGILNECLVRKITGLSFITPTSVDIPDPGAVLSIIEAINKAYNLKIKTDLLEEQVKALDEQIKKIEEQYKELQEKQKEPQSMYG	not failed
RPNVERDAQRRVNIRVTDEIVTALNERRIVMAFEPVVQAVSRAPAFHECLVRMKQDDGELLLAPDIVPVAEKLGLIRLVDHRVLELVVAELAAAPGVELSLNISPDTTMDADWWASIESLLGANPGVAERLIVEITETVAIQDLDDVRGFVNRLKNFGARIAIDDFGAGYTSFRNLRNLGVDIVKIDGAFVQNIARSADDRAFVQTLIDLARRLEIKTVAEWVQDEASAIMLRDWGCDYIQGRLIGLA	failed
RRAKALLDFERHDDDELGFRKNDIITIISQKDEHCWVGELNGLRGWFPAKFVEVLDERSKEYSIA	not failed
RSEIVRLNSLMNDILNNIPVYLFVKDTGNDFRYLYWNKAFAEHSGISVQRAVGSTDADIFPDKKDAEHFREDDLKVMKLGRIEYLENYTTMSGEVRTVTTMKTVVPSGGQHPYIIGVSWDVT	failed
RTDRTALIDLMQALNQHMTYTQGATEVDTSAAQAFAGRSGVCQDHTHAFLACARSLGVPARYVSGYLCSEDSEHLSSHAWAEAWIDDAWYSFDVTNQLAIPERHLKLAVGLDYLDACPVRGMRRG	failed
RTNRLSAVQSNKMIVRAMERGVSAERLGKALGLSPQTIRQRFRLLNGICAEVVALLGDTDCPANVFNLLRQMKPLRQIEAAELMIGNKNLSVLLAKALLAATPPDQLVMIKKPSQDHQVSAESMARLERELAALQMQIKTVEEDYGPDVLHLTVIKGYLTKLLANAAVVRWLARHQPEYLKEFQSIAELTELPWADNGPEDDLQSTTAEG	not failed
RVGIIVAAHGNSTASSMVEVATELLGSTPIAAVDMPLTVSPSDILECVAEKMKQVDEGEGVLMLVDMGSLAMLESRLEEKTGISIKTISNVTTSMVLDAVRKVNYLNLNLHAIYQSVTKDFIELWERQPAASGKK	failed
SAATMKKAAAEDVNVTFEDQQKINKFARNTSRITELKEEIEVKKKQLQNLEDACDDIMLADDDCLMIPYQIGDVFISHSQEETQEMLEEAKKNLQEEIDALESRVESIQRVLADLKVQLYAKFGSNINLEADES	failed

Sequence	protein production
SASLLDKAKDFVADKLTAIPKPEGSVTDVDLKDVNRDSVEYLAKVSVTNPYSHSIPICEISFTFHSAGREIGKGKIPDPGSLKAKDMTALDIPVVVSYSILFNLARDVGVDWDIDYELQIGLTIDLPVVGEFTIPISSKGEIKLPTFKDFF	failed
SAVPGGMFAPSLAVGAGFGLNMSQLLPFLPQSMVVLLGMVGFFAGMTRAPMTGFVIVMEMTDTSGMIIPLMATALIAASVSRLVSRRALYDGQVRLFLPQWRTQAGQ	failed
SCEKENIGIEVTPVNAKFIITPVVIDATTGTDVTQSAEISFSKGNGTYEGTPELASESININAKYKGMTGSASVTIPALKAGQFGAKEVTIILSENFFAQEESSNSQIETTKHSGFKNNTSDYWYYITVTYTKKEGSEVIKNDYEGDDSEIKNIIDAYNKGVREDKVTLNDVQVLAHSRFSVFVDYMKTTSVYQIIEKSPKRDGNPVASFTVDSYNTIVSPKNEQIPGHGHAPSHGHGHGHGDDSNAGGGIIIAD	not failed
SDESDLPSAMPAVPAFGVEERNMVSGVLTLAERSIRSIMTPRTDVSWVNIDDDAATIRQQLTAAPHSFFPVCRGSLDEVVGIGRAKDLVADLITEGRVRRNRLRDPIIVHESIGILRLMDTLKRSRGQLVLVADEFGAIEGLVTPIDVFEAIAGEFPDEDELPDIVA	failed
SDESGMRTYVRTLSFILSKAVADILPGSKLFIEHSLSNGYYCQIKNAHMITPGEIVRIKERMESLIVADIPFRAHCERTEEVAAMFRSMGYEDKADLLETKGMP	failed
SDNLSSEEIQQRAHQITDESLESTRRILGLAIESQDAGIKTITMLDEQKEQLNRIEEGLDQINKDMRETEKTLTELNKCCGLCVCPCNRTKNFESGKAYKTTWGDGGENSPCNVVSKQPGPVTNGQLQQPTTGAASGGYIKRITNDAREDEMEENLTQVGSILGNLKDMALNIGNEIDAQNPQIKRITDKADTNRDRIDIANARAKKLIDS	not failed
SETRSPGLNNMKPQSLQLVLEEQVLALQQQMAENQAASWRKLKNSQEAQQRQATLVRKLQAKVLQYRSWCQELEKRLEATGGPIPQRWENVEEPNLDELLVRLEEEQQRCESLAEVNTQLRLHMEKADVVNKALREDVEKLTVDWK	failed
SFKPVMQKFLHDHVDLQVSALYALQVHCYNSNFPKGMLLRFFVHFYDMEIIEEEAFLAWKEDITQEFPGKGKALFQVNQ	failed
SGGTLRIYADSLKPNIPYKTILLSTTDTADFAVAESLEKYGLEKENPKDYCIARVMLPPGAQHSDERGAKEIILDDDECPLQIFREWPSDKGILVFQLKRRPP	not failed
SGILFMSKVGLRGDRRSEGDEVLDPLRQALDSSMQSHNLYQHPQHLAFHVSAPVASTVQQASGLLGPLPHLSSFALQPAHSLLPPLGSHGAGFQENGAKAES	not failed
SHIIVIGAGITGVTSAYELIKLGFQVTVIDRHLFPAMETSFANGGQLSACNAEVWNQRSTISKGIKWMSKKDAPLLLNPSFNLHKYSWLFEFLSHIKHYEQNTIETVRLALLARKRLFEIAEIENIDFNLERRGILHIYHTPSDYEIAKNVNDLLNKATLHRYQVNPDEIKTIEPALSGEYCGGYYTPDDATGDIHKFCVGLADSSKRDGVDYKFGWDVNQIELLEKGVIVSCIPSTENMTEPSSQHLRLEADGIVVCGGVGSYQLAHMLGDRVNVYPVKGYSITVHLNDEHSIENAPWVSLLDESAKIVTSRLGKDRLRVAGTAEFNGYNRDIRADRIQPLINWVNANFEISTEHVVPWSGLRPMMPNMMPVVRQGKHPRVFYNTGHGHLGWTLSAATAAIIGQEIQSKIP	failed
SHRSAAAFVDAERELFVRDQPIGPDDRVLAGLSVAFDASCEEMWLAWGHGACLVPAPRSLVRTGLDLGPWLISRDISIVSTVPTLAGMWPAEALDNVRLLILGGEACSAELVARVASSRREVWNTYGPTEATVVTCAARLEAGQPVAIGLPLAG	failed
SKALLFVIIGSVLVMLLLVGVIIMLLMGNKEESKENASKNTQEVQANPMANKNQEAKEGSNIQQYLVLGPLYAIDAPFAVNLVSQNGRRYLKASISLELSNEKLLNEVKVKDTAIKDTIIEILSSKSVEEVVTNKGKNKLKDEIKSHLNSFLIDGFIKNVFFTDFIIQ	failed
SKCLERFGPFYLLYKDRLSFVNADASELTFHPDTAVLRLKAPHDALISLLGQSPKSILDTTMGLASDSLVMAAVRNRVTALESQEVIFQVVSRGLATYQTDNKQIEKAMRSIKAVKSDSLTFLKSQTDHSFDIIYADPMFSETIKESENLNAIKPLANGSRLTREWLDEAKRVGRERIIIKAHFRDSVFEELGFERQVRP	failed
SKGMALRSVGGMVIESPRNETEHWLLETVGRQAQQAGIGMPTVAIYDSADINAFATGAKRDDSLVAVSTGLLHNMTRDEAEAVLAHEVSHIANGDMVTMTLMQG	not failed
SKSTKNDVKITALSTSESQIISHMLRLLIEHDTHGKIKPTLVNNLGSSTIQHNALINGDANISGVRYNGTDLTGALKEAPIKDPKKAMIATQQGFKKKFDQTFFDSYGFANTYAFMVTKETAKKYHLETVSDLAKHSKDLRLGMDSSWMNRKGDGYEGFKKEYGFDFGTVRPMQIGLVYDALNTEKLDVALGYSTDGRIAAYDLKVLKDDKQFFPPYAASAVATNELLRQHPELKTTINKLTGKISTSEMQRLNYEADGKGKEPAVVAEEFLKKHHYFD	not failed
